Assay: soluble on expression in E. coli; label from the status in PepcDB or PDB records

| Sequence | soluble on expression in E. coli |
| --- | --- |
| MTKYIFVTGGVVSSLGKGITAASLGRLLKNRGLNVTIQKFDPYINVDPGTMSPYQHGEVFVTDDGAETDLDLGHYERFIDINLNKYSNVTTGKIYSSVLQKERRGEYLGGTVQVIPHITNEIKERVYRSGRETNADVVITEIGGTVGDIESLPFLEAIRQIKSDIGRDNVMYIHCTLIPYLKAAGEMKTKPTQHSVKELRSLGIQPNIIVVRTEMPVSQDMKDKLALFCDIDTKAVIEARDADTLYAVPLSLQEQNMDQIVCDHLKLDNPAADMTEWTALVEKVRNLSKKTKIALVGKYVELQDAYISVVEALRHAGYSFDTDVEVKWVNAEHVTAENVQELVGDTDGILVPGGFGDRGVEGKIVAIQYARENKVPFLGICLGMQLASIEFARNVLGLEGANSSEINPDTPYAIIDLLPEQKDVEDLGGTLRLGLYPCKLSEETNAYNAYNEPVVYERHRHRYEFNNQFRPDMEKAGFVFSGTSPDGRLVEIIELKDHPWFVAAQFHPELVSRPNRPQPLFHDFVKASLTNKESK | not soluble |
| MIEFSHVSKLFGAQKAVNDLNLNFQEGSFSVLIGTSGSGKSTTLKMINRLVEHDSGEIRFAGEEIRSLPVLELRRRMGYAIQSIGLFPHWSVAQNIATVPQLQKWSRARIDDRIDELMALLGLESNLRERYPHQLSGGQQQRVGVARALAADPQVLLMDEPFGALDPVTRGALQQEMTRIHRLLGRTIVLVTHDIDEALRLAEHLVLMDHGEVVQQGNPLTMLTRPANDFVRQFFGRSELGVRLLSLRSVADYVRREERADGEALAEEMTLRDALSLFVARGCEVLPVVNMQGQPCGTLHFQDLLVEA | soluble |
| MDWEERENPKRLVKTFAFPNFREALDFANRVGALAERENHHPRLTVEWGRVTVEWWTHSAGGVTEKDREMARLTDALLQR | soluble |
| MGSDKIHHHHHHMKQGIEFIKFNPTQNMTILVETNDPIGEYKHIAEKIMSYDSVYAEQVGFIEKPLNRQAAAHLEMAGGEFCGNACMALAALIASEKGLRPTELMEIVLEVSGTDNLVMCQVERTLDEFHCQVTMPLPKQIEQKIVKYDGSEMNLIIVRYQEFIHIVIEVDDFNKIVREKAQSLAKLLGVTLGTNLIGILLYKSNTSELAPLIFVPDLDSMIWERGCGSGTASLGAYLAWKNKKEIVAKIKQPGGTIQVIATCEEEKLTSLKIEGSVSIVARGKAFIDV | not soluble |
| AYVITEPCIGTKDASCVEVCPVDCIHEGEDQYYIDPDVCIDCGACEAVCPVSAIYHEDFVPEEWKSYIQKNRDFFKK | soluble |
| MLYASLCRTPVFGILAQILCDIYSSIGCALSSFRSPLGPPFDFLFDTCSCQTARCFNKSKGVLITGSKLKAFRNPQPSWGFSVHKQVAALWQQLLSTGNVTRETDFFQQGGDSLLATRLTGQLHQAGYEAQLSDLFNHPRLADFAATLRKTDVPVEQPFVHSPEDRYQPFALTDVQQAYLVGRQPGFALGGVGSHFFVEFEIADLDLTRLETVWNRLIARHDMLRAVVRDGQQQVLEQTPRWVIPAHILHTPEEALQVREKLAHQVLNPEVWPVFDLQVGYVDGMPARLWLCLDNLLLDGLSMQILLAELEHGYQYPQQLPPPLPVTYRDYLQQPAIQSLNADSLAWWQAQLDDIPPAPALPLRCMPQDVETPRFARLNGALDSTRWHRLKKRAADAHLTPSAVLLSVWSTVLSAWSAQPEFTLNLTLFDRRPLHPQINQILGDFTSLMLLSWHPGESWLHSAQSLQQRLSQNLNHRDVSAIRVMRQLAQRQNVPAVPMPVVFTSALGFEQDNFLARRNLLKPVWGISQTPQVWLDHQVYESEGELRFNWDFVAALFPAGQVERQFEQYCTLLNRMTEDENSWHLPLAALVPPVKQAEQGTERTSRVCPEHSQSHIAADESTVSLICDAFREVVGESVTPAQNFFEAGATSLNLVQLHVLLQRHEFSTLTLLDLFTHPSPAALAAYLTSVATVEKTKRSRPVRRRQRRI | not soluble |
| MAAEGKAIAKVNDLVIFVPYVVPGDVVDLQIKRKKNKYAEAEAVKFHELSPVRAVPFCQHYGVCGGCKWQVLPYSEQIRYKQKQVEDNLRRIGKIELPEISPILGSAKTEFYRNKLEFTFSNKRWLTNDEVRQDVKYDQMNAVGFHIPGAFDKVLAIEKCWLQDDISNRIRNAVRDYAYEHDYSFINLRTQEGMLRNLIIRTSSTGELMVIVICKITEDHEMELFKQLLQFIADSFPEITSLLYIINNKCNDTINDLDVHVFKGKDHMFEEMEGLRFKVGPKSFYQTNSEQAYNLYKIAREFAGLTGKELVYDLYTGTGTIANFVSRQARQVIGIEYVPEAIEDAKVNAEINEIKNALFYAGDMKDMLTQEFINQHGRPDVIITDPPRAGMHQDVVDVILFAEPKRIVYVSCNPATQARDLQLLDGKYKVKAVQPVDMFPHTHHVENVVLLELR | not soluble |
| MAEKTYSGFVAIVGKPNVGKSTLLNNLLGVKVAPISPRPQTTRKRLRGILTEGRRQIVFVDTPGLHKPMDALGEFMDQEVYEALADVNAVVWVVDLRHPPTPEDELVARALKPLVGKVPILLVGNKLDAAKYPEEAMKAYHELLPEAEPRMLSALDERQVAELKADLLALMPEGPFFYPEDYAKSDQTFGEWVAEILREEAMKRLWHEVPYAVATKVEEVAERENGVLYIKAILYVERPSQKAIVIGEGGRKIKEIGQATRKQLEALLGKKVYLDLEVKVYPDWRKDPEALRELGYRSSVG | soluble |
| NSLSTDMSVNRDNRTITSSIMRVSNSSELIQFKNKTAPYFSEKRNVEVNINGVAKDIYGRQIVCRHLASYWEMNFMETNGKVNYQLLSTPDAIAKNVCLEKTEDFSKSPAYIYFVENKKWGTVITNFFYNMKKNGDFVRTLSACTLNHQMALGLKIKRVQESEKWVVQFFDPNRTVTHKRTVFTCDSHFELSQLSAKDFFDDFYWKIYGLEQPGQVIFEDRHNSPLTNTVKLLPDELINSRVIYHAITKNLTEVLFILMEKYKNGEISQSKLVNLLATRSSDGTPAFYIALQNGYSDIIQVYGKILNMCNLSQETILTLLAAVGANNVPGLCMSFMNGHVDTIKAYGEIVFKTPLTSDKRLYLLAAKDSHDLPGLFFALQNGHADSIRMFGSLLNKKMLSSEQIKELLKVKHGLFMALQNGHTKAIMAYGDILKILPPHQEYIDELLWIKNPNGTSGLFMAFYNGHTETIRAFCNILKNYSFTTRRLVEMLSATNKDGIPGVFVSVVNRDKETILEYCRIIKENNLEPDTIAEQFSKKMKKTFIEIINRFNHFL | soluble |
| MSSTKKDIKVYVNYRDEYAEPKIISALKNSGKELTFTNSAKEANFQWAQYEDIDFDEVYKNPKTKLCCSYVIRKALIRKEYLWRTVITYLAKHPDSILSKSVPEAYSLELDYAEFLDDSLMEAYELRQELEENATKNISEKQWYILKPSMCDRAQGIRLFSTIEELQAIFDSFDDEESESEEAGLEEKGDITVAFNNKIVISQIRNFLVQKYISKPLLLDHRKFHIRAYVLATGALSVYLFNEMLCLLARDKYKKPTPDPDLLFSHLSNTCLQGDNVEQSSIRDFWNTSIENKDDIFKSILNIIGDVFEAAATTQGIHFQPLENCFEIFGVDFLVDCESQVYLLEVNSYPDFKQTGKNLSNIIENLFSAVVETAIIPFFESSTKRNVDSKLTLAKKLQLFGFR | soluble |
| AIAPAKSPSTRKKRARTKDEDEENVDTGNQTTAPTFRDKNLQLVHDFLASQNRPFSLQNILDSLANKGDMKKAALDKALTELVTSEYVTCKEYGKAKLYLIRQKNIALPSAEETAALDSRLETLANELEELSAECQVLEAKISELSAQPRTEEAKERVALLETETATIDERIEKLQVHCAGYDSSRRQYIQQQHERALKALRLRRSRARQIILQMAEGMERKPRELADEIGIESDSDDWLTASRSVVSNARSKAAV | soluble |
| MYFRLESQFSINGSMIVLINGAEPSLESHVAFYETGTFTVEQGEMRMIELKYQSTMENIHAFLDVVTGAIDIHLSPCKSQETDIFYSNLAAGSHRIDIDLKTMMDNVSVLLKKNVSKLHKAKR | not soluble |
| MAHHHHHHMPFSLGELQNVFLDALTGCPPDAPQQTRDTAVTVAGASIFAGSWQPLESTRVPVRAYLRGTGEFDTEDSCRRAVMRVVDATLNDVLNDDAVNAFIGAKACESADIVGACEHILRKYLLWMLDGYLHYDGTPQCPFYDALKSTVCAFSVEWGQTFGPMFAEAQSPDEFFSLLVTRGAQHHATAVATNPDDAKVRMATAMSIQVFLMAKTYSPSTPFPSRVAL | soluble |
| MGSDKIHHHHHHMGLLNLLSTNRNENLFLPAHGRGNSLPKNIKTLLRLRPGIWDLPELFEIGGPLISEGAIAESQKSSAYEVGVDRCWYGVNGATGLLQSSLLALAHPGQAVLMPRNIHKSCIQACLFGGLTPLLFDVPYLTDRGHASVMDRKWLQRVLKKAKEYEDDIAAVVLVNPTYQGYSADMESLIKEIHSHSLPVLVDEAHGAYLISQIRPDLPKSAISFGADLVVHSLHKSASGLVQSAVLWSQGDKVDPFKIERAIELLQTSSPSSLLLASCESSIKELLESKGIKKLRLCIEEAEMLKDFLIKNEVPLLKNSDPLKIILHTSKFGLSGIEVDKSFIRKRMIGELAEPGTLTFCLGLSSHKRLGKRFVRIWNEILKACGKQKPCFFKRPPFGIVSKPYKSYSDSWGSNFEKVNLKDAIGRISVEMVCPYPPGIPLLIPGEILDEARVDWLIEQKSFWPEQISDFVRVIS | not soluble |
| METFKDRLVFLWKSEARQAKIASDIEMTIAGFSRIWNEGGLPKSETLKKIKQLKGCSIDWLLTGEGNPFPDEAPKKSLAYDTLGNEVDTDEFVFVPRYDIRAAAGYGQFVDHEEPVFTMAFRRHWIENYVTRDTKNLSVISVKGDSMEGVLNDGDSILVNHGENTPRDGLYVLRINENLLVKRLQIVPGGIINVISANEAYPAFEINLNDLTDDVEIIGRVEWFGRTI | not soluble |
| MELNAVKSSYARWAPIYDKTFGAITNVGRHAAVDYINAHDATELLEVGVGTGLSLPNYRPGLKVTGIDFSEEMLAKARAKVESLGLGHVQSLRQMDARDLDFADASFDVVAAMHIISVVPEPERVMAEMARVCKPGGLIVITNHFARDSGMLARVERFAAPFANLLGWHPDFEISSVLKQPLEHHHHHH | not soluble |
| MSLDFSIPEEYMMLKESMREFVKRELMPLEKTLLERELSLWTEPGHLIPDEDHKRLMQKTKELGFWGLEVDEEFGGQGLGMLAKTLVVEELSKSLVGFSNHGFTLPPDAPNLYYLHECCGPRQREKYFVPYCNGDVDSAMACTEPGAGSDVSGLKTKAVKKGDKWVINGTKSFISKCDYDNVFFIVIAVTDPSASTKDRFTAFLIDREHPGVRIGKEIPVIGPMPTWDLILEDVEVDDDAILGDVGKAFIPLQNRFGVRRIELASSCTGMAERLIQMMIDQANTRITFGQPLAERGTIQNWIADSTMELEQVRWLLYYAAWKSDQGHKDLRIEGASVKVAATEMLTRVADRAIQIHGGLGVSHELGIEYVARHVRLWRIVEGPSEVHRWLVARQLLKEGHHHHHH | not soluble |
| KILLEPTKVSFWGILRTPFMEQFGNGITPFSVGGQPMQILGLRQAGVSLGEGSSVSLMK | not soluble |
| MGSDKIHHHHHHMSDVYDYLKESLPGDHSRQATAEAVLQARVAKGFAPAKVLDFGCGDGRSIDLFRRMLPQVDWTGVDIEASPEVASRRRQDGRFVTYDGYELPFPDRSFPLVYSHQVLEHVRKPELALREIARVLEPDGLFIGQTSQFEPYHSYSLWNFTVYGFKRIVEDAGMQLAELRPGIDGFTLMRRTYEGRPPEMSKYFSQESPINEEIEKAAGDKRTQVRNFRKLLFCGQFIFVVQLR | not soluble |
| MSLIHIAIAEDDFRVAQIHERLIKQLDGFKIIGKAANAKETLALLKEHKADLLLLDIYMPDELGTALIPDIRSRFPEVDIMIITAATETRHLQEALRAGIAHYLIKPVTADKFRQVLLQYKEKRKLLMSQPKGIITITTDPNSSSVDKLAAALEHHHHHH | soluble |

Reference: the DeepSol protein solubility set
